B1: Polyglutamine-binding protein 1 (Homo sapiens), O60828 (parent)
chain: MPLPVALQTRLAKRGILKHLEPEPEEEIIAEDYDDDPVDYEATRLEGLPPSWYKVFDPSCGLPYYWNADTDLVSWLSPHDPNSVVTKSAKKLRSSNADAEEKLDRSHDKSDRGHDKSDRSHEKLDRGHDKSDRGHDKSDRDRERGYDKVDRERERDRERDRDRGYDKADREEGKERRHHRREELAPYPKSKKAVSRKDEELDPMDPSSYSDAPRGTWSTGLPKRNEAKTGADTTAAGPLFQQRPYPSPGAVLRANAEASRTKQQD
B2: WW domain-binding protein 11 (Homo sapiens), Q9Y2W2 (parent)
chain: MGRRSTSSTKSGKFMNPTDQARKEARKRELKKNKKQRMMVRAAVLKMKDPKQIIRDMEKLDEMEFNPVQQPQLNEKVLKDKRKKLRETFERILRLYEKENPDIYKELRKLEVEYEQKRAQLSQYFDAVKNAQHVEVESIPLPDMPHAPSNILIQDIPLPGAQPPSILKKTSAYGPPTRAVSILPLLGHGVPRLPPGRKPPGPPPGPPPPQVVQMYGRKVGFALDLPPRRRDEDMLYSPELAQRGHDDDVSSTSEDDGYPEDMDQDKHDDSTDDSDTDKSDGESDGDEFVHRDNGERDNNEEKKSGLSVRFADMPGKSRKKKKNMKELTPLQAMMLRMAGQEIPEEGREVEEFSEDDDEDDSDDSEAEKQSQKQHKEESHSDGTSTASSQQQAPPQSVPPSQIQAPPMPGPPPLGPPPAPPLRPPGPPTGLPPGPPPGAPPFLRPPGMPGLRGPLPRLLPPGPPPGRPPGPPPGPPPGLPPGPPPRGPPPRLPPPAPPGIPPPRPGMMRPPLVPPLGPAPPGLFPPAPLPNPGVLSAPPNLIQRPKADDTSAATIEKKATATISAKPQITNPKAEITRFVPTALRVRRENKGATAAPQRKSEDDSAVPLAKAAPKSGPSVPVSVQTKDDVYEAFMKEMEGLL

Variants of: B1
Conditions: with wbp11_human WBP11, Q9Y2W2

Variant	effect of a mutation on the interaction
MPLPVALQTRLAKRGILKHLEPEPEEEIIAEDYDDDPVDYEATRLEGLPPSWYKVFDPSCGLPYYWNADTDLASWLSPHDPNSVVTKSAKKLRSSNADAEEKLDRSHDKSDRGHDKSDRSHEKLDRGHDKSDRGHDKSDRDRERGYDKVDRERERDRERDRDRGYDKADREEGKERRHHRREELAPYPKSKKAVSRKDEELDPMDPSSYSDAPRGTWSTGLPKRNEAKTGADTTAAGPLFQQRPYPSPGAVLRANAEASRTKQQD [V73A]	decreasing interaction
MPLPVALQTRLAKRGILKHLEPEPEEEIIAEDYDDDPVDYEATRLEGLPPSWYKVFDPSCGLPYCWNADTDLVSWLSPHDPNSVVTKSAKKLRSSNADAEEKLDRSHDKSDRGHDKSDRSHEKLDRGHDKSDRGHDKSDRDRERGYDKVDRERERDRERDRDRGYDKADREEGKERRHHRREELAPYPKSKKAVSRKDEELDPMDPSSYSDAPRGTWSTGLPKRNEAKTGADTTAAGPLFQQRPYPSPGAVLRANAEASRTKQQD [Y65C]	disrupting interaction
MPLPVALQTRLAKRGILKHLEPEPEEEIIAEDYDDDPVDYEATRLEGLPPSWYKVFDPSCGLPAYWNADTDLVSWLSPHDPNSVVTKSAKKLRSSNADAEEKLDRSHDKSDRGHDKSDRSHEKLDRGHDKSDRGHDKSDRDRERGYDKVDRERERDRERDRDRGYDKADREEGKERRHHRREELAPYPKSKKAVSRKDEELDPMDPSSYSDAPRGTWSTGLPKRNEAKTGADTTAAGPLFQQRPYPSPGAVLRANAEASRTKQQD [Y64A]	disrupting interaction
MPLPVALQTRLAKRGILKHLEPEPEEEIIAEDYDDDPVDYEATRLEGLPPSWYKVFDPSCGLPYYANADTDLVSWLSPHDPNSVVTKSAKKLRSSNADAEEKLDRSHDKSDRGHDKSDRSHEKLDRGHDKSDRGHDKSDRDRERGYDKVDRERERDRERDRDRGYDKADREEGKERRHHRREELAPYPKSKKAVSRKDEELDPMDPSSYSDAPRGTWSTGLPKRNEAKTGADTTAAGPLFQQRPYPSPGAVLRANAEASRTKQQD [W66A]	disrupting interaction
MPLPVALQTRLAKRGILKHLEPEPEEEIIAEDYDDDPVDYEATRLEGLPPSWYKVFDPSCGLPYYWNADTDLVSALSPHDPNSVVTKSAKKLRSSNADAEEKLDRSHDKSDRGHDKSDRSHEKLDRGHDKSDRGHDKSDRDRERGYDKVDRERERDRERDRDRGYDKADREEGKERRHHRREELAPYPKSKKAVSRKDEELDPMDPSSYSDAPRGTWSTGLPKRNEAKTGADTTAAGPLFQQRPYPSPGAVLRANAEASRTKQQD [W75A]	disrupting interaction

Variants of: B2
Conditions: with pqbp1_human PQBP1, O60828

Variant	effect of a mutation on the interaction
R466A;P467A;P468A;G469A	decreasing interaction

Variants of: B2
Conditions: with pqbp1_human PQBP1, O60828
Remark: another data set of the same source

Variant	effect of a mutation on the interaction
P462A;P463A;P464A;G465A	disrupting interaction

Variants of: B2
Conditions: with pqbp1_human PQBP1, O60828
Remark: another data set of the same source

Variant	effect of a mutation on the interaction
P455A;R456A;L457A;L458A	decreasing interaction

Variants of: B2
Conditions: with pqbp1_human PQBP1, O60828
Remark: another data set of the same source

Variant	effect of a mutation on the interaction
P459A;P460A;G461A	decreasing interaction

Reference: IntAct's records for PubMed 27314904
